The target of the assay is GST-ATG16L1N (human) (UniProt Q676U5). Put plainly: pull-down; recombinant GST fusion (2–200 nM) on glutathione resin, incubated with 1.5 mg of a 1:3.5 mixture of wild-type and ATG7 KO PC-3 lysates; 20 mM Tris-HCl pH 8.0, 200 mM NaCl, 1 mM EDTA, 0.5% NP-40; immunoblot for GST and ATG5; fraction bound quantified.
GST-ATG16L1N (human), sequence (Q676U5 1-69): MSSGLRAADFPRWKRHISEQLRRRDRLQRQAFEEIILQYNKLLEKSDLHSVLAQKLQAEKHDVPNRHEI

native ATG12–ATG5 conjugate, sequence (Q9H1Y0 whole entry): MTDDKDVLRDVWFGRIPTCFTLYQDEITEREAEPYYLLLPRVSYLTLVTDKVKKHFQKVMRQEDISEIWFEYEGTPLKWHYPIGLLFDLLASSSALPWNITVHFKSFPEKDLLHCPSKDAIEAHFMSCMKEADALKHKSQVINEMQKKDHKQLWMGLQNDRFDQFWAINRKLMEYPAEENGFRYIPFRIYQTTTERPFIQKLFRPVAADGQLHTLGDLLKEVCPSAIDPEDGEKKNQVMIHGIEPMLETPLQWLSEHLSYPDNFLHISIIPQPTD
native ATG12–ATG5 conjugate, sequence (O94817 whole entry): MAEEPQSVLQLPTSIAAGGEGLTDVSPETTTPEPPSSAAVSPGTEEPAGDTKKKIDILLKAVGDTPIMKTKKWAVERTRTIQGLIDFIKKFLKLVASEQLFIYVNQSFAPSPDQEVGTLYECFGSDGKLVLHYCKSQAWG

With “native ATG12–ATG5 conjugate (from UniProt Q9H1Y0 1-275; O94817 1-140) (complex)”, the fold higher affinity than unconjugated ATG5 amounted to 10 fold.

(Values after paper PMC6796855.)
